# Molecular target: T1, His-LexA (Synechocystis sp. PCC 6803) (UniProt P73722)
# T1 sequence: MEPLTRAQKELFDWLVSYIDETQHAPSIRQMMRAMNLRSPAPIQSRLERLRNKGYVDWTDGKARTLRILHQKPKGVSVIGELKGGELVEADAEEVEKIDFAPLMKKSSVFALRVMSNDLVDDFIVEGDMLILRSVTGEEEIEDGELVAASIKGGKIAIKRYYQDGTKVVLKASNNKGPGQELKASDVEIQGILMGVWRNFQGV
# Assay: EMSA
# Conditions: DIG Gel Shift Kit 2nd generation (Roche), as in Kizawa et al. (ref 9); 6% polyacrylamide gel; buffer, salt, pH and temperature not given
row,Sequence,binding
1,GTGGGAAAGTTCCACCTATACCATGCCTTGAAAATTGGTATGGGTCAAATCAGATAGTTCTTTTTGACTACTAATTTTGTTGCTAGCAGCGTTGTCAATCCCATCGCTCTGGTCTGGGATGCAAATGGCAGGAAAATTCTGCTCCCCTTGGGGGAAACGAGTTACGATGGGGGCGACGTTTGCTTTGTTTGCGACATAAT (double strand) [PggtB],binds
2,TAACTCGTCACACCCCATGTGGGCAATGGTATCGTATTCTGCCCAGGTTTCCACCCCTTCAGCCGTTACTCGCAACTCTAGTTCGTGGGCTAGGTTGATAATTGAGGCGGTGATAGTTTTATTCTTGGCGTTTTTGTCAATGTGACGCACAAAGCTTTGATCTATTTTCAGCACATCAAAGGGGAACTGCTGCAGATAAC (double strand) [PggpP],binds
3,TGCAATTTCCTCCTGTCCTCAGGGGACAAACTATATTAAGAAAGTTTACGGGATTATGTTGCCCGGGGAGAATTTGTCCGTGGGGGGTTTACCGACCGATCGCCGGTGAGAAGTACCAGGATAGCTTTATAAAGTTTTGTTACAATGGCAGAAGAAATTCTCAGAAACCCAGCC (double strand) [PnblB],binds
4,TGGGATCAAACAACAAGAAAAAATCAATTTACCCTGCCCATGGCAATAGTTTTAAGGTTAACAAAAAAAATAGAATTTACCGCAATCGACGGGTAAATTTCCAGAGGATACCCCCAACTCCAGAAGCAGAAATCTTGCCAGAAAAGCTTTTTCTGTTACTATACTTAACAAGTAACTACTTTTTCC (double strand) [PggpS],binds
5,TGGGCAGGGTAAATTGATTTTTTCTTGTTGTTTGATCCCATTTTCCAGTCTTTTTGACTTCCATTCAGTCAGGATAATTTTTGCAGTTTTTTTATGGAGTTTTGATAACATTGAGCTTTGCCCCCGGCGATCGCCTAGGGATAAACAATAAACGTGTGAACTAATATGCCTGGATTTATCCCTGGATTGACATTGTTTTTGCC (double strand) [PgghA],binds
6,TTTTTCACAACCTAAGACTTCCTTCCAAAAATCCATAGGGCGGTGGAAGCTTAGCTATTTTTACCATTTTGTTTTGCCACTCAAATATTTACTTAAGGTGAGGTAAAAACTCATCTTTTTTTTACTAAAAATTGCGGCTAGAAATGTAATTTCGGCAATCCCCCCACCTTCTTTCCTGAAAACCGAATCTAACCTGGAAGGGGAAATTTTAAGATAGAACCATTCAAGGGTAATCAATTCCTTCCACACATCAGGAGTTAACATT (double strand) [PhspA],binds

# — paper PMC7567884
